T1: APRIN (PDS5B) (UniProt Q9NTI5 1-1447)
T1 sequence: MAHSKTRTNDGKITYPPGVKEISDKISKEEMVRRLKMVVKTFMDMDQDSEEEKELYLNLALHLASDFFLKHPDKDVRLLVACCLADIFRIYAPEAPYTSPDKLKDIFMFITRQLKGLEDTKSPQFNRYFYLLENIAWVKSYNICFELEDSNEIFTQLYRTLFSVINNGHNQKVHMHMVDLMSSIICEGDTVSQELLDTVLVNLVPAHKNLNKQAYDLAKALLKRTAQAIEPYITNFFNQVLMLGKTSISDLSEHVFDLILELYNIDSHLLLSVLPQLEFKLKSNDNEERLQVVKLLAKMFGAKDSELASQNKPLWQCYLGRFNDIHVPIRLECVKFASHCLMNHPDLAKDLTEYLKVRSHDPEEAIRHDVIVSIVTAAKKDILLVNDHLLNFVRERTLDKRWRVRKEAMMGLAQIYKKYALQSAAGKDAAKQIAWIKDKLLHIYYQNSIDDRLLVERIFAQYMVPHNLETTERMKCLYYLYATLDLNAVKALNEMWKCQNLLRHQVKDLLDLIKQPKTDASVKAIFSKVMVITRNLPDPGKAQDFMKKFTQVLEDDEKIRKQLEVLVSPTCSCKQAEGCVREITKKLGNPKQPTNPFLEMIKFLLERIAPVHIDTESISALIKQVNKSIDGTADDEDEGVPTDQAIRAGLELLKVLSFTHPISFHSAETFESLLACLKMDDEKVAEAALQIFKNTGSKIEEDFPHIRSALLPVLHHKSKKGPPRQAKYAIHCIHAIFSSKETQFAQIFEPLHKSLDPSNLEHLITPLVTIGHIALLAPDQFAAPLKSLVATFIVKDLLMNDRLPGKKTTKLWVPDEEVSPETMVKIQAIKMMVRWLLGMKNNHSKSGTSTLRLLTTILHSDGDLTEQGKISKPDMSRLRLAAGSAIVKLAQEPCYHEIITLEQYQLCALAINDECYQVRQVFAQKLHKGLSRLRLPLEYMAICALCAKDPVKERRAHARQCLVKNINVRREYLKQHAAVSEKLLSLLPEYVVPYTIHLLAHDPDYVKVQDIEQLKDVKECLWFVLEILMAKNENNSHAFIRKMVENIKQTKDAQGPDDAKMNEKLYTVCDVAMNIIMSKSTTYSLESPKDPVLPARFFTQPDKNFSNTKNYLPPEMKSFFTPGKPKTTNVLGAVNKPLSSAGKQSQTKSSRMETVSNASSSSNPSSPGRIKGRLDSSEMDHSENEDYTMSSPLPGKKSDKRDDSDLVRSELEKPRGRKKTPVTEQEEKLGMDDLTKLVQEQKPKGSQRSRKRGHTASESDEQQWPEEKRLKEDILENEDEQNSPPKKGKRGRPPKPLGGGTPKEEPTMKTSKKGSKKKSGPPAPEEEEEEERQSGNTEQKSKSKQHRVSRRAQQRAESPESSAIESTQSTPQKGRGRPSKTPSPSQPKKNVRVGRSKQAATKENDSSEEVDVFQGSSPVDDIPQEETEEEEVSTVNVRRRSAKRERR

B1: ssDNA (JYM925) (ssDNA)
DNA: GGGTGAACCTGCAGGTGGGCAAAGATGTCCTAGCAATGTAATCGTCAAGCTTTATGCCGT
B2: Holliday junction (JYM925/926/927/928) (structured_DNA)
DNA 1: B1 DNA
DNA 2: ACGCTGCCGAATTCTACCAGTGCCAGCGACGGACATCTTTGCCCACCTGCAGGTTCACCC
DNA 3: ACGGCATAAAGCTTGACGATTACATTGCTACATGGAGCTGTCTAGAGGATCCGACTATCG
DNA 4: CGATAGTCGGATCCTCTAGACAGCTCCATGGTCGCTGGCACTGGTAGAATTCGGCAGCGT
B3: Splayed arms (JYM925/JYM926) (structured_DNA)
DNA 1: B1 DNA
DNA 2: B2 DNA 2
B4: dsDNA (JYM925/JYM945) (dsDNA)
DNA 1: B1 DNA
DNA 2: ACGGCATAAAGCTTGACGATTACATTGCTAGGACATCTTTGCCCACCTGCAGGTTCACCC

What follows are binders tested against T1, APRIN (PDS5B) (assay: EMSA).
B1: binds. B2: binds. B3: binds. B4: no binding.

Source: PMC5159559
